Target: T1, FLAG-UPF1-HP (UniProt Q92900-2 1-1118, G495R | G497E, hyperphosphorylated in cells (detected with an anti-phospho-(S/T)Q antibody); sites not stated)
T1 construct: UPF1 with G495R and G497E in the helicase domain; also called FLAG-UPF1-(G495R/G497E); hyperphosphorylated UPF1; source: HEK293T, transiently transfected (pcDNA3-FLAG-UPF1-HP), in RNase A-treated cell extract
T1 sequence (looked up): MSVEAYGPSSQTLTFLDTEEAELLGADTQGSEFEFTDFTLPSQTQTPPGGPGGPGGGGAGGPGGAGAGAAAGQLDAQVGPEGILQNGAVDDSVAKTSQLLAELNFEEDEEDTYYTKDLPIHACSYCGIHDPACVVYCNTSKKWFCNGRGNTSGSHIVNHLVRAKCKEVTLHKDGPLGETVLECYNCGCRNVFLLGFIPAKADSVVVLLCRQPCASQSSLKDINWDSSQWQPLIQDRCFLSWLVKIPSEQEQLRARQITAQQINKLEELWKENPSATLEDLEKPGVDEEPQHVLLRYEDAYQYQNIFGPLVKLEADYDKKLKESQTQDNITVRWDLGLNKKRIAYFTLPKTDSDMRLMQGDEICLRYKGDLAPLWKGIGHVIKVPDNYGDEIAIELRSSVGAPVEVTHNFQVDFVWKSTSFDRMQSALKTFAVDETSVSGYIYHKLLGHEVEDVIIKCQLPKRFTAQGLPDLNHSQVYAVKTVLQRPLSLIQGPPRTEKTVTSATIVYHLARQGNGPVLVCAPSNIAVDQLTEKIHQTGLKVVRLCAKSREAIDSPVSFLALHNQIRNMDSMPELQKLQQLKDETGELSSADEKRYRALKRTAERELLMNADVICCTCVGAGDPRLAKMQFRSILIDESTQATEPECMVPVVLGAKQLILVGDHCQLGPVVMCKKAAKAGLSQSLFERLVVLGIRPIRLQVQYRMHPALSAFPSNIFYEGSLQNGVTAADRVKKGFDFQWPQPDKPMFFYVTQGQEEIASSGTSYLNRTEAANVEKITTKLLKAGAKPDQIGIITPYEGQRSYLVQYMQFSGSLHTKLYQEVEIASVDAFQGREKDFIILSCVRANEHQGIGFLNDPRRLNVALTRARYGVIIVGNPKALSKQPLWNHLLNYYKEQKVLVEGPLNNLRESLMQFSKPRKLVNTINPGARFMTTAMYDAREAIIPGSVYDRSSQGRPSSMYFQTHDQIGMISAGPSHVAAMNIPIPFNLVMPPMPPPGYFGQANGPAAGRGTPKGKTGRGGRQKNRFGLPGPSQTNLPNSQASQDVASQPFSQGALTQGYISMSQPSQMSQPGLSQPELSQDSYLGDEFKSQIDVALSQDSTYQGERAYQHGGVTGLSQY
Test: co-IP; anti-FLAG IP of FLAG-UPF1 (WT or a variant) from RNase A-treated extracts of transiently transfected HEK293T cells; cells treated with DMSO or MG132 for 12 h (Fig. 5a,b), for polypeptidyl-puro with MG132 12 h and puromycin 1 h (Fig. 5d), with or without eEF1A1 siRNA (Fig. 5e); NET-2 buffer, 4 °C; western blotting
Details: partners not purified

B1: DCP1A, cellular (natural protein, human (endogenous in HEK293T), UniProt Q9NPI6 1-582, looked up)
chain: MEALSRAGQEMSLAALKQHDPYITSIADLTGQVALYTFCPKANQWEKTDIEGTLFVYRRSASPYHGFTIVNRLNMHNLVEPVNKDLEFQLHEPFLLYRNASLSIYSIWFYDKNDCHRIAKLMADVVEEETRRSQQAARDKQSPSQANGCSDHRPIDILEMLSRAKDEYERNQMGDSNISSPGLQPSTQLSNLGSTETLEEMPSGSQDKSAPSGHKHLTVEELFGTSLPKEQPAVVGLDSEEMERLPGDASQKEPNSFLPFPFEQLGGAPQSETLGVPSAAHHSVQPEITTPVLITPASITQSNEKHAPTYTIPLSPVLSPTLPAEAPTAQVPPSLPRNSTMMQAVKTTPRQRSPLLNQPVPELSHASLIANQSPFRAPLNVTNTAGTSLPSVDLLQKLRLTPQHDQIQTQPLGKGAMVASFSPAAGQLATPESFIEPPSKTAAARVAASASLSNMVLAPLQSMQQNQDPEVFVQPKVLSSAIPVAGAPLVTATTTAVSSVLLAPSVFQQTVTRSSDLERKASSPSPLTIGTPESQRKPSIILSKSQLQDTLIHLIKNDSSFLSTLHEVYLQVLTKNKDNHNL
notes: DCP1A (component of the decapping complex), cellular protein co-immunopurified from HEK293T extracts; source: endogenous, HEK293T extract
fold more co-immunopurified than with UPF1-WT or UPF1-HP-12A: ~5 fold
